“Also recorded” adds a separate entry of the source. No end group written: not given here.

In one data set the target is HLA-A2402 (Homo sapiens, UniProt P04439, D101N/D140Y/D185E/E176V/E190D/F33S/G103R/G107R/I119L/I121M/I306V/K335N/L105A/L180Q/L300P/N151K/N90K/Q86E/Q94H/R106L/R138H/R89G/T104I/T345S/V100E/W191G/Y123F). In words: HLA-A24 peptide binding assay of or7c1-derived peptides. Particulars: T2A24 cells, fluorescence of HLA-A24 antibody. How it is done: Cell line T2A24 for which HLA-A2402 had been gene-transferred to peptide transporter-deficient T2 cells was used in an assay, and experiment was carried out in the same way as in Experimental Example 16. In this Experimental Example, SL-8 was used as a negative control, and survivin-2B (SEQ ID No: 72) was used as a positive control.
The peptides below were prepared in the same way as in Experimental Example 26, and a binding assay was carried out.

The subject of data set [1] is T2A24 cells pulsed with peptide. In words: Cr51 cytotoxicity assay: SOX2 peptide-induced CTLs against peptide-pulsed T2A24. In kind it is cell-based, human. Conditions: Cr51 release, 4 hours. Here is the method:
50 mL of peripheral blood from HLA-A24-positive lung cancer patients who gave informed consent and HLA-A24-positive healthy subjects was centrifuged in a Ficoll-Conray density gradient, and peripheral blood mononuclear cells (PBMC) were separated and collected. Subsequently, lymphocytes of PBMC were separated into CD8-positive lymphocytes and CD8-negative lymphocytes using CD8 MACS beads.
In a 96 well plate, 200000 cells/well of CD8-negative lymphocytes and the above-mentioned HLA-A24 binding SOX2 peptide were mixed, and the mixture was allowed to stand at room temperature for 2 hours, and then subjected to a degree of 100 Gy radiation treatment. […] The peptide-specific reactivity of the induced CTLs was evaluated by a cytotoxicity assay or an ELISPOT assay.
Cr^51 was added to T2A24 cells, the cells were cultured in RPMI medium at 37° C. for 1 hour, radiolabeled, and washed with RPMI medium 4 times. […] Supernatant was then collected, and the gamma-ray dose was measured using a gamma counter.
The dose when only RPMI medium and peptide-pulsed T2A24 were cultured was defined as spontaneous release (SPR), the dose when cell lysate (2% NP40) and peptide-pulsed T2A24 were cultured was defined as maximum release (MXR), and cellular cytotoxicity was calculated as (measured value−SPR)/(MXR−SPR)×100.

Data set [2] has as its system T2A24 pulsed with peptide. In words: 51Cr release assay with CTLs and or7c1 peptide-pulsed T2A24. Format: cell-based, human. Conditions: T2A24 pulsed with 5 μg/mL peptide, E/T ratios of 20 and 6. Here is the method:
PBMC was separated from whole blood (heparin added) sampled from a test subject using Lymphoprep (Nycomed). After PBMC was cultured at 37° C. for 24 hours, an experiment was carried out using non-adherent cells. In order to obtain CD8-positive cells from the non-adherent cells, CD8-positive and -negative cells were separated using a magnetic cell separation system (Miltenyi Biotech). For CD8-negative cells, 100 U/mL IL-2 and 1 μg/mL PHA-P were added to AIM-V medium (Life Technologies) to give PHA-blast. The CD8-positive cells were cultured in AIM-V medium at 37° C. and stimulated with ⅕ the amount of PHA-blast three times every 7 days (0th day, 7th day, 14th day). From the 8th day, 50 U/mL of IL-2 was added to the medium, and thereafter every 3 to 4 days the medium was exchanged, and 50 U/mL of IL-2 was added. The cells were subjected as CTLs to ELISPOT on the 21st day and a ^51Cr release assay on the 28th day.
In an assay for measuring cellular cytotoxicity, cells were labeled with radioactive ^51Cr, and cellular cytotoxicity by CTLs was measured. CTLs were used as effector cells, and T2A24, K562, Sw480, and Sw480 constitutively expressing or7c1 were used as target cells. […] Kill %=(measured release−spontaneous release)×100/(maximum release−spontaneous release)

“FYGTGFGVYL (peptide fragment of OR7C1) [251(10)]”: the “binding to HLA-A2402” value with HLA-A2402 is given as “binding to HLA-A2402 was observed”.

“HYTViMNPQL (HYTVIMNPQL; not fully specified (residue 5); printed as HYTViMNPQL) [131(10)]”: in the data set with HLA-A2402, the “binding to HLA-A2402” value is “binding to HLA-A2402 was observed”. In the case of “KYRPRRKTKTL [SOX2_109 peptide, KYRPRRKTKTL]”, in data set [1], the “cellular cytotoxicity of CTLs against peptide-pulsed T2A24” value is “strong radiation was detected; also recorded: extremely high level of cytotoxicity”. Take “MYLVTFTGNL (peptide fragment of OR7C1) [34(10)]”: the “binding to HLA-A2402” value in the data set with HLA-A2402 is “binding to HLA-A2402 was observed”.

“MYTMVTPML (peptide fragment of OR7C1) [277(9)]”: the “binding to HLA-A2402” value with HLA-A2402 is recorded as “binding to HLA-A2402 was observed”. Take “RYLRDQQLLGI [HIV-derived peptide, reference compound]”: in data set [1], the “cellular cytotoxicity of CTLs against peptide-pulsed T2A24” value was “hardly any radiation due to damaged cells was detected”. In the case of TYAGCLSQIF [93(10), TYAGCLSQIF], the “cellular cytotoxicity (kill %)” value in data set [2] is recorded as “higher cellular cytotoxicity”.

Source of the values: patent US10080776B2, “Molecular marker for cancer stem cell” (Sapporo Medical University, priority 2008, dated 2018).
